One may read the pEC50 as the negative decadic logarithm of the EC50, by convention in mol/L.

pEC50: −log10 of the molar value.

In test [1] the target is T1, human GPCR135 (Homo sapiens, UniProt Q9NSD7).
T1 sequence (Q9NSD7 1-469): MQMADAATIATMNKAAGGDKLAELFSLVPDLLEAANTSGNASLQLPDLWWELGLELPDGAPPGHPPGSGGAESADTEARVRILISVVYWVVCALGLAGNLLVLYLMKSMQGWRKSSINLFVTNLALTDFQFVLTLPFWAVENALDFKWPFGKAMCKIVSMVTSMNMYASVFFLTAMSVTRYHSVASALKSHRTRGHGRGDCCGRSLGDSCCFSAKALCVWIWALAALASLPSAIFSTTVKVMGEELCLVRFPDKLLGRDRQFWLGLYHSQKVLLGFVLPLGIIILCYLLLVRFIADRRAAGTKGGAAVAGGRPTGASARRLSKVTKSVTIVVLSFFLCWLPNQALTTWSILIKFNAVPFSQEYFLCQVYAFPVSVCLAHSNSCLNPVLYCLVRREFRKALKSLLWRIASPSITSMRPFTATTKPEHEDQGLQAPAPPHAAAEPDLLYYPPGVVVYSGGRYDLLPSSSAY
In words: Agonist assay, inhibition of forskolin-induced β-gal expression in SK-N-MC/CRE-β-gal cells. It is filed as cell-based. On the set-up: expressed in transfected cells. The following applies: human GPCR135 agonist response, mean ± SEM; NA = no agonist activity observed. As for the experimental part:
(§1) FIG. 1 provides a characterization of mutant relaxin-3 peptides as ligands for human GPCR135, GPCR142, and LGR7. The truncated peptides were tested for their GPCR135 and GPCR142 agonist activity using SK-N-MC/CRE-β-gal cells expressing either human GPCR135 (A) or GPCR142 (B). Agonists for GPCR135 or GPCR142 inhibit forskolin induced β-galactosidase (β-gal) expression. The LGR7 agonist activity of the truncated peptides was tested using SK-N-MC/CRE-β-gal cells expressing Gαs-linked human LGR7 (C). Human relaxin-3 was used as positive control in both cases. β-gal expression was measured by colorimetric assay using CPRG as the substrate and reading the absorbance at 570 nm.
(§2) All peptides were tested for their GPCR135, GPCR142, and LGR7 agonist activities in SK-N-MC/CRE cells expressing the relevant receptors as described by Liu et al., 2005b. […] An increase in cAMP concentration in these cells is associated with increased β-gal expression, which can be measured using Chlorophenol Red-β-D-Galactopyranoside (CRGP) as a substrate and reading the optical absorbance at 570 nm. […] The results were analyzed using GraphPad Prism 4.0 software. […] The agonism and antagonism of peptides for rat LGR7 was assayed using a cAMP luminescence assay. […] The cAMP in the cells was measured with a cAMP detection kit (DiscoveRx HitHunter, Cat. #90-0041) according to the manufacturer's protocol. […]

For a further test, the target named is human GPCR142 (Homo sapiens, UniProt Q8TDU9). The description is as above. It is filed as cell-based. The following applies: human GPCR142 agonist response, mean ± SEM; NA = no agonist activity observed. The arrangement: expressed in transfected cells. As for the experimental part:
as §1, §2

The target in test [2] is T1, human GPCR135. In words: Antagonism: rightward shift of relaxin-3 dose-response curve, SK-N-MC/CRE-β-gal reporter assay. Conditions: pharmacological characterization. It is filed as cell-based. On the set-up: expressed in transfected cells. As for the experimental part: In a functional assay using SK-N-MC/CRE-β-gal cells expressing human GPCR135 (A), GPCR142 (B) or LGR7 (C), ascending concentrations of relaxin-3 (R3) were used to generate dose response curves either in the absence or presence of 10 nM, 100 nM or 1 μM R3(BΔ23-27)R/I5. For Gαi linked GPCR135 and GPCR142, the assay was performed as inhibition of forskolin-induced β-gal expression. LGR7 is linked to Gαs, therefore addition of forskolin is not necessary. The antagonism of R3(BΔ23-27)R/I5 is indicated by the rightward-shift of the relaxin-3's dose-response curve.
All peptides were tested for their GPCR135, GPCR142, and LGR7 agonist activities in SK-N-MC/CRE cells expressing the relevant receptors as described by Liu et al., 2005b. […] An increase in cAMP concentration in these cells is associated with increased β-gal expression, which can be measured using Chlorophenol Red-β-D-Galactopyranoside (CRGP) as a substrate and reading the optical absorbance at 570 nm. […] The results were analyzed using GraphPad Prism 4.0 software. […] The agonism and antagonism of peptides for rat LGR7 was assayed using a cAMP luminescence assay. […] The cAMP in the cells was measured with a cAMP detection kit (DiscoveRx HitHunter, Cat. #90-0041) according to the manufacturer's protocol. The results were analyzed using GraphPad Prism 4.0 software.
In general terms: A reporter such as luciferase makes a cellular process visible.

For test [3], the target named is T1, human GPCR135. In words: Radioligand binding assay, 125I-R3/I5 tracer, COS-7 cells expressing GPCR135. The arrangement: expressed in transfected cells; host or cells: COS-7. An excerpt: COS-7 cells in 24-well tissue culture plates transiently expressing GPCR135, GPCR142 or LGR7 were used in radioligand binding assays as described by Liu et al., 2005a, J. Biol. Chem., 280:292-300. ^125I-Relaxin-3/INSL5 (^125I-R3/I5), a radiolabeled chimeric peptide with the human relaxin-3 B-chain and the human INSL5 A-chain (Liu et al., 2005b), was used at a final concentration of 50 pM as the tracer to characterize the binding properties of all truncated relaxin-3 peptides for GPCR135 and GPCR142. ^125I-relaxin-2 (PerkinElmer Biosciences, Boston) was used at a final concentration of 50 pM to characterize the binding properties of the truncated peptides for the relaxin receptor (LGR7). The results were analyzed by GraphPad Prism 4.0 software (Graphpad, San Diego). The IC50 values, which are the ligand concentrations that inhibited 50% of the maximum specific binding, were then calculated.

Chain of human GPCR142 (Q8TDU9 whole entry): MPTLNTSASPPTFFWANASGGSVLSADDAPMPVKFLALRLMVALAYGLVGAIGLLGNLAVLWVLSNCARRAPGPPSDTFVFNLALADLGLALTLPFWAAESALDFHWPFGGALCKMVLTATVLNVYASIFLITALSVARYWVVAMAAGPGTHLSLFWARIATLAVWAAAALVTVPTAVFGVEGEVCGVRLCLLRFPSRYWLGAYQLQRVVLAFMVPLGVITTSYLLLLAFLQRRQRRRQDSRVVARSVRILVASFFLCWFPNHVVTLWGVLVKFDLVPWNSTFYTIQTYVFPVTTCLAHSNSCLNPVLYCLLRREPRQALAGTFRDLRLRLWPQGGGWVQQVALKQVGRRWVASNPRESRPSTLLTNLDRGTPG

Take “R3(BΔ23-27)R: Relaxin-3 mutant: B-chain SEQ ID NO:15 (Gly23-Trp27 deleted plus C-terminal Arg), relaxin-3 A-chain SEQ ID NO:13”: the pEC50 in the test with human GPCR135 [1] and with human GPCR142 was less than 6.00 throughout. In the test with human GPCR135 [2], the “GPCR135 antagonist character” value is “GPCR135 antagonists”. Further, the “affinity of human GPCR135” value with human GPCR135 [3] is “high affinities”.

The values above are taken from patent US8299028B2, “Chimeric peptide antagonist for GPCR135 or GPCR142” (Janssen Pharmaceutica NV, priority 2007, dated 2012).
